Marks after values point to notes of the source that are not given here.

As a reminder, the stoichiometry N is a count of units in the complex or per binding partner.

For series [1], the target named is T1, UvrA (Thermotoga maritima, UniProt Q9WYV0).
T1 construct: pET28a(+) construct, E. coli Rosetta (DE3) pLysS, His-Trap purified, no tag cleavage mentioned
T1 sequence (Q9WYV0 1-916): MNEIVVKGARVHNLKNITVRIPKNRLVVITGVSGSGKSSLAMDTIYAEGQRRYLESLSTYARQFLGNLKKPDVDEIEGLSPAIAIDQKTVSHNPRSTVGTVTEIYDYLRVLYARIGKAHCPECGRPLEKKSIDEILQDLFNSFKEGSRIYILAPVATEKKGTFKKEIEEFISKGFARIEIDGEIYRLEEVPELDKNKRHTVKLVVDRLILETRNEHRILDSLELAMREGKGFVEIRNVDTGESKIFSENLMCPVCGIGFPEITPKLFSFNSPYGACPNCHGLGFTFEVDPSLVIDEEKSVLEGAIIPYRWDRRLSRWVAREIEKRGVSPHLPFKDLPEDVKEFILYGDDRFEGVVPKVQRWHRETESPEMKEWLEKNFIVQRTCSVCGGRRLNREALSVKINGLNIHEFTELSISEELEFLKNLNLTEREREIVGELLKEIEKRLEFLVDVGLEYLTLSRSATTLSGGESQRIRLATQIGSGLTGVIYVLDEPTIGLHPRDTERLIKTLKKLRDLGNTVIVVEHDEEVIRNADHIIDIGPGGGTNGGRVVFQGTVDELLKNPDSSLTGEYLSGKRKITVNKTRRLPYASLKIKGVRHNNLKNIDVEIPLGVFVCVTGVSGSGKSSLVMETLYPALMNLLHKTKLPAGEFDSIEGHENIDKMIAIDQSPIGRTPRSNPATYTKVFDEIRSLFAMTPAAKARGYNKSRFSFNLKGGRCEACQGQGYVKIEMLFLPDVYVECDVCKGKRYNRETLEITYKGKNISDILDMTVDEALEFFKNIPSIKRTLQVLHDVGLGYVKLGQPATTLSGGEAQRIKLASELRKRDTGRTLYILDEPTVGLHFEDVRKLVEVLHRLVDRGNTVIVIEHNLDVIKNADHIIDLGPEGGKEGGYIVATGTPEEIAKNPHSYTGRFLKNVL
Put plainly: ATPase, EnzChek phosphate assay (MESG/PNP, […] nm). It counts as biochemical. As to conditions: 1 µM echinomycin-DNA or DNA, 50 mM HEPES pH 7.5, 50 mM NaCl, 10 mM MgCl2, 22 °C.

For series [2], the target named is Ecm16 (Streptomyces lasalocidi, UniProt Q0X0A9). As to conditions: 1 µM echinomycin-DNA or DNA, 50 mM HEPES pH 7.5, 50 mM NaCl, 10 mM MgCl2, 22 °C.
Series [3] concerns the target Ecm16* (Streptomyces lasalocidi (insertion domain from Streptomyces peucetius DrrC)) (UniProt Q0X0A9). The series can be described thus: fluorescence polarization. As to conditions: apparent KD, Hill fit, FP: 50 mM HEPES pH 7.5, 50 mM NaCl, 50 nM DNA, 4-512 nM protein, temperature not stated, EMSA: same buffer plus 0.1 mg/ml BSA. Background: Polarisation of emitted light reports the rotation of a fluorescent probe.

Series [4] deals with the molecule itself. The series can be described thus: crystal structure; hanging drop vapour diffusion at 18 °C; 8 mg/ml Ecm16, 10 mM MgCl2, 1 mM ADP mixed with 0.1 M MES pH 6.5, 0.2 M sodium thiocyanate, 12% PEG 20K; 2.0 Å; homodimer in the model.
The target in series [5] is T2, Ecm16 (Streptomyces lasalocidi, UniProt Q0X0A9 1-792).
T2 sequence: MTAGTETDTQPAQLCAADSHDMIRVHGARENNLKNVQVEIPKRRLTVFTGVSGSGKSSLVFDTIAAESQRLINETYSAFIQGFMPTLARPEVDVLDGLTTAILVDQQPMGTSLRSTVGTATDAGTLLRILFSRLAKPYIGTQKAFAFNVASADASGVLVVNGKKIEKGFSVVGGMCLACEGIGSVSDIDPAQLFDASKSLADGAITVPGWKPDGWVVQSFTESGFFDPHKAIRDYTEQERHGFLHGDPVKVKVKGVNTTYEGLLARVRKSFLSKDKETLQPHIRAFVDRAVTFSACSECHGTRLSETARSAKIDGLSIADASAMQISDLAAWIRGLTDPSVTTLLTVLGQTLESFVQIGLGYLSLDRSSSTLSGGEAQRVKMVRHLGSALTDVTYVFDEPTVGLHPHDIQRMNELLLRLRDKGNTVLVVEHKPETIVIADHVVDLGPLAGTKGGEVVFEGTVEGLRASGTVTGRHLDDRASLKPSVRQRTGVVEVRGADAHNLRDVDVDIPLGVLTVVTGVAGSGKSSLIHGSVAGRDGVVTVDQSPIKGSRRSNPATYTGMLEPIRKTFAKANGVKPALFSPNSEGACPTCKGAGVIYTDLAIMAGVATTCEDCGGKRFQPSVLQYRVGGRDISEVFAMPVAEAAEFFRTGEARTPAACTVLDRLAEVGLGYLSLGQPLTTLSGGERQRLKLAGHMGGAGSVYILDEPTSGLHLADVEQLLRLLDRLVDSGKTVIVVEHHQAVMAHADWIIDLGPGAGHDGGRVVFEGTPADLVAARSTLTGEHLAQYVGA
The series can be described thus: fluorescence polarization; echinomycin-bound DNA; apparent KD, Hill fit; FP: 50 mM HEPES pH 7.5, 50 mM NaCl, 50 nM DNA, 4-512 nM protein, temperature not stated; EMSA: same buffer plus 0.1 mg/ml BSA, 50 nM DNA, echinomycin:DNA 1.1:1, 15 min at room temperature, 6% native gel at 4 °C. To be noted: protein: recombinant; tags: His (pET28a, Ni-NTA); chain copies: 2; label: 5'-FAM on both strands; blunt; self-complementary.

Series [6] has as its target T2, Ecm16. The series can be described thus: fluorescence polarization; no echinomycin; apparent KD, Hill fit; FP: 50 mM HEPES pH 7.5, 50 mM NaCl, 50 nM DNA, 4-512 nM protein, temperature not stated; EMSA: same buffer plus 0.1 mg/ml BSA, 50 nM DNA, echinomycin:DNA 1.1:1, 15 min at room temperature, 6% native gel at 4 °C. To be noted: protein: recombinant; tags: His (pET28a, Ni-NTA); chain copies: 2; label: 5'-FAM on both strands; blunt; self-complementary.

`Nc1ncnc2c1ncn2[C@@H]1O[C@H](COP(=O)(O)OP(=O)(O)OP(=O)(O)O)[C@@H](O)[C@H]1O` [ATP]: the “ATPase, EnzChek phosphate assay (MESG/PNP, 360 nm)” value in series [1] was “Ecm16* and UvrA showed a similar basal ATPase activity for all four DNA substrates”; in series [2], “we measured the ATP hydrolysis activity of Ecm16, Ecm16-ΔID, Ecm16*, and UvrA”.

Turning to “AGTGATCAGTGGTTACGTAACCACTGATCACT (double strand) [FAM 32-bp DNA]”, the Kd in series [3] (echinomycin-bound DNA) is 37.7 nM; in series [3] (no echinomycin) it was 90.8 nM.

B1: Ecm16 from Streptomyces lasalocidi (natural protein)
chain: T2 sequence
notes: Ecm16, UvrA-like self-resistance protein of the echinomycin biosynthetic gene cluster, Streptomyces lasalocidi (formerly S. lasaliensis); codon-optimised gene in pET28a(+) between NdeI and EcoRI; cloning by NdeI into pET28a(+) would put a His tag on the N-terminus (surmised); also called WT Ecm16; echinomycin resistance conferring protein Ecm16; source: E. coli BL21 (DE3), purified (Ni-NTA, …)
On to B1, for which the “stoichiometry N” value in series [4] turned out to be 2.

B2: FAM 32-bp DNA (dsDNA)
DNA 1: AGTGATCAGTGGTTACGTAACCACTGATCACT
DNA 2: B2 DNA 1
Consider B2, for which the Kd amounted to 11.8 ± 1.7 nM in series [5] and 60.2 ± 2.1 nM in series [6].

The record behind these values is paper PMC10192343, “Structural and functional analyses of the echinomycin resistance conferring protein Ecm16 from Streptomyces lasalocidi” (Scientific Reports, 2023).
